{"source": "paper PMC5851525", "about": "“Quantitative analysis of the impact of a human pathogenic mutation on the CCT5 chaperonin subunit using a proxy archaeal ortholog^” (Biochemistry and Biophysics Reports, 2017)", "key": {"[1]": {"biological_target": "T1, Pf-CD1 (Pyrococcus furiosus, UniProt Q8TZL6, I138R)", "T1 construct": "gene PF1974; C-terminal deletion (last 22 residues of Pf-Cpn removed); expressed in E. coli BL21(DE3) from pET33b; homo-hexadecamer (two octameric rings)", "assay": "isothermal titration calorimetry, one set of sites model", "type": "binding", "text": "(§1) isothermal titration calorimetry, one set of sites model on Pf-CD1"}, "[2]": {"biological_target": "T2, Pf-CD1 (Pyrococcus furiosus, UniProt Q8TZL6, DEL/LAST/OF/RESIDUES)", "T2 construct": "gene PF1974; C-terminal deletion (last 22 residues of Pf-Cpn removed); expressed in E. coli BL21(DE3) from pET33b; homo-hexadecamer (two octameric rings)", "T2 sequence (Q8TZL6 1-527)": "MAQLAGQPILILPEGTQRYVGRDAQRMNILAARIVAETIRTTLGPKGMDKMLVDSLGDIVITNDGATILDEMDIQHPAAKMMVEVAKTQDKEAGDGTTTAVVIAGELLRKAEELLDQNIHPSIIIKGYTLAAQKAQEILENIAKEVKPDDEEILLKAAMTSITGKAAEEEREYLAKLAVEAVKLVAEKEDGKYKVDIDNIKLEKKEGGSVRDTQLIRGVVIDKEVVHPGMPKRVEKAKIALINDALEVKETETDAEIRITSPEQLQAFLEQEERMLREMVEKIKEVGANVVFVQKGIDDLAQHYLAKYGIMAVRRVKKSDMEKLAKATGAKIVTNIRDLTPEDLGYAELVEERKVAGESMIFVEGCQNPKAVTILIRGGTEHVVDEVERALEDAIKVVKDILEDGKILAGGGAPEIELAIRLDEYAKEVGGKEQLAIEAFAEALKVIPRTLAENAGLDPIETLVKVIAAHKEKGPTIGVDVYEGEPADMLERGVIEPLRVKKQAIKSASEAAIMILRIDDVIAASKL", "assay": "isothermal titration calorimetry, one set of sites model", "type": "binding", "text": "as §1"}, "[3]": {"biological_target": "T3, Pf-CD1 (Pyrococcus furiosus, UniProt Q8TZL6, I138H)", "T3 construct": "gene PF1974; C-terminal deletion (last 22 residues of Pf-Cpn removed); expressed in E. coli BL21(DE3) from pET33b; homo-hexadecamer (two octameric rings)", "assay": "isothermal titration calorimetry, one set of sites model", "type": "binding", "text": "as §1"}, "[4]": {"biological_target": "Pf-CD1 Ile138His (Pyrococcus furiosus)", "assay": "ITC; dilution experiment, 18 successive injections, 25 °C; fit to a two-state hexadecamer-monomer equilibrium (hexadecamer to monomers); parameters per subunit"}, "[5]": {"biological_target": "Pf-CD1 Ile138Arg (Pyrococcus furiosus)", "assay": "ITC; dilution experiment, 18 successive injections, 25 °C; fit to a two-state hexadecamer-monomer equilibrium (hexadecamer to monomers); parameters per subunit"}, "[6]": {"biological_target": "Pf-CD1, Pyrococcus furiosus chaperonin subunit (Pf-Cpn) with the last 22 amino acids deleted (Pyrococcus furiosus)", "assay": "ITC; dilution experiment, 18 successive injections, 25 °C; fit to a two-state hexadecamer-monomer equilibrium (hexadecamer to monomers); parameters per subunit"}}, "data": [{"molecule": "Nc1ncnc2c1ncn2[C@@H]1O[C@H](COP(=O)(O)OP(=O)(O)OP(=O)(O)O)[C@@H](O)[C@H]1O", "note": "[ATP]", "values": [{"measurement": "Kd", "setting": "[1]", "result": "200 ± 10", "unit": "nM"}, {"measurement": "Kd", "setting": "[2]", "result": "320 ± 50", "unit": "nM"}, {"measurement": "Kd", "setting": "[3]", "result": "300 ± 20", "unit": "nM"}]}, {"molecule": "Pf-CD1 Ile138His (domain or fragment)", "values": [{"measurement": "Kd", "setting": "[4]", "result": 430, "unit": "nM"}, {"measurement": "dH of dissociation (∆Hd)", "setting": "[4]", "result": -250, "unit": "kcal/mol"}, {"measurement": "stoichiometry N", "setting": "[4]", "result": 16}]}, {"molecule": "Pf-CD1 Ile138Arg (domain or fragment)", "values": [{"measurement": "Kd", "setting": "[5]", "result": 100, "unit": "nM"}, {"measurement": "dH of dissociation (∆Hd)", "setting": "[5]", "result": -49, "unit": "kcal/mol"}, {"measurement": "stoichiometry N", "setting": "[5]", "result": 16}]}, {"molecule": "Pf-CD1, Pyrococcus furiosus chaperonin subunit (Pf-Cpn) with the last 22 amino acids deleted (domain or fragment)", "values": [{"measurement": "Kd", "setting": "[6]", "result": 310, "unit": "nM"}, {"measurement": "dH of dissociation (∆Hd)", "setting": "[6]", "result": -350, "unit": "kcal/mol"}, {"measurement": "stoichiometry N", "setting": "[6]", "result": 16}]}]}
